What was measured:
[1] = target: T1, DJ-1, endogenous in SH-SY5Y cells (human (endogenous in SH-SY5Y)), Q99497; assay: cross-linking; in situ, 0.2 mM DSG, 10 min, 4 °C, in PBS pH 7.4, harvested SH-SY5Y cells (untreated or carbachol) or cortical neuronal cultures (untreated or BDNF); quenched with 50 mM Tris-HCl; SDS-PAGE with DTT and immunoblot; settings: remark: other sources report otherwise
T1 chain: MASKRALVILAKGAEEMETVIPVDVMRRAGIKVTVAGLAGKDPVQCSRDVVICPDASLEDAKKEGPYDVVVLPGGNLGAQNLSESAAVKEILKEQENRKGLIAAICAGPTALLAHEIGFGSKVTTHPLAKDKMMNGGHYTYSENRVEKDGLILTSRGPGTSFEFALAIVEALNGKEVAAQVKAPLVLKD

[2] = target: the molecule itself; assay: cross-linking; in situ/ex vivo, 0.5 mM DSG, 30 min, 37 °C, PBS pH 7.4, ~0.5 mm slices of rat DG, CA or cortex (naive, HFS-LTP or BDNF-LTP); lysis in 1% Triton X-100; SDS-PAGE with DTT and immunoblot
[3] = target: the molecule itself; assay: cross-linking; DSG-crosslinked pooled rat DG (1, 2, 4 h post-HFS), then Arc immunoprecipitation (rabbit anti-Arc antibody or ALFA-H11 nanobody) and Arc immunoblot
[4] = target: the molecule itself; assay: SDS-PAGE and immunoblot without cross-linker; non-crosslinked (DMSO only) cells or tissue, boiled in Laemmli buffer with DTT; species that resist SDS
[5] = target: the molecule itself; assay: cross-linking + affinity purification with mass spectrometry; in situ, 0.1 mM DSG, 10 min, 4 °C, mTq2-Arc transfected HEK293FT cells; immunoblot, Arc immunoprecipitation and LC-MS/MS of gel-excised bands (~75, 150, 250, >250 kDa)
[6] = target: the molecule itself; assay: cross-linking; in situ, 0.2 mM DSG, 10 min, 4 °C, in PBS pH 7.4, harvested SH-SY5Y cells (untreated or carbachol) or cortical neuronal cultures (untreated or BDNF); quenched with 50 mM Tris-HCl; SDS-PAGE with DTT and immunoblot
[7] = target: the molecule itself; assay: cross-linking; thiol-cleavable DSP on rat CA tissue; non-reducing SDS-PAGE and immunoblot; crosslinks reversed by DTT

B1: DJ-1, endogenous in SH-SY5Y cells, Q99497 1-189 (natural protein)
chain: MASKRALVILAKGAEEMETVIPVDVMRRAGIKVTVAGLAGKDPVQCSRDVVICPDASLEDAKKEGPYDVVVLPGGNLGAQNLSESAAVKEILKEQENRKGLIAAICAGPTALLAHEIGFGSKVTTHPLAKDKMMNGGHYTYSENRVEKDGLILTSRGPGTSFEFALAIVEALNGKEVAAQVKAPLVLKD
In the case of B1, the stoichiometry N [1] is reported as 2.

B2: Arc, endogenous in rat brain tissue (dentate gyrus, hippocampal CA, cortex) (natural protein, rat (endogenous in rat brain tissue), UniProt Q63053 1-396, looked up)
chain: MELDHMTTGGLHAYPAPRGGPAAKPNVILQIGKCRAEMLEHVRRTHRHLLTEVSKQVERELKGLHRSVGKLENNLDGYVPTGDSQRWKKSIKACLCRCQETIANLERWVKREMHVWREVFYRLERWADRLESMGGKYPVGSEPARHTVSVGVGGPEPYCQEADGYDYTVSPYAITPPPAAGELPEQESVGAQQYQSWVPGEDGQPSPGVDTQIFEDPREFLSHLEEYLRQVGGSEEYWLSQIQNHMNGPAKKWWEFKQGSVKNWVEFKKEFLQYSEGTLSREAIQRELDLPQKQGEPLDQFLWRKRDLYQTLYVDAEEEEIIQYVVGTLQPKFKRFLRHPLPKTLEQLIQRGMEVQDGLEQAAEPSVTPLPTEDETEALTPALTSESVASDRTQPE
notes: Arc (Arg3.1), endogenous in adult Sprague-Dawley rat brain tissue; monomer at ~55 kDa on SDS-PAGE; also called Arg3.1; endogenous Arc; source: endogenous, rat brain tissue (DG, CA, cortex), in tissue / lysate
For B2, the “ratio of dimer:monomer in the DSG lane (BDNF-LTP, 2 h)” value [2] was 0.56, the “ratio of dimer:monomer in the DSG lane (HFS-LTP, 2 h)” value [2] was 0.4 and the “stoichiometry N” value [3] was 2.

B3: rArc-StrepII-HA, stably expressed in SH-SY5Y cells (natural protein, UniProt Q63053 1-396, looked up)
chain: MELDHMTTGGLHAYPAPRGGPAAKPNVILQIGKCRAEMLEHVRRTHRHLLTEVSKQVERELKGLHRSVGKLENNLDGYVPTGDSQRWKKSIKACLCRCQETIANLERWVKREMHVWREVFYRLERWADRLESMGGKYPVGSEPARHTVSVGVGGPEPYCQEADGYDYTVSPYAITPPPAAGELPEQESVGAQQYQSWVPGEDGQPSPGVDTQIFEDPREFLSHLEEYLRQVGGSEEYWLSQIQNHMNGPAKKWWEFKQGSVKNWVEFKKEFLQYSEGTLSREAIQRELDLPQKQGEPLDQFLWRKRDLYQTLYVDAEEEEIIQYVVGTLQPKFKRFLRHPLPKTLEQLIQRGMEVQDGLEQAAEPSVTPLPTEDETEALTPALTSESVASDRTQPE
notes: Arc printed as rArc in the cassette CMV::rArc-StrepII-HA; the species is not spelt out; monomer at ~60 kDa on SDS-PAGE; also called tagged-Arc; exogenous Arc
For B3, the “stoichiometry N” value [4] was 2.

B4: Arc N-terminally fused to monomeric Turquoise 2 (mTq2-Arc) (natural protein, UniProt Q63053 1-396, looked up)
chain: MELDHMTTGGLHAYPAPRGGPAAKPNVILQIGKCRAEMLEHVRRTHRHLLTEVSKQVERELKGLHRSVGKLENNLDGYVPTGDSQRWKKSIKACLCRCQETIANLERWVKREMHVWREVFYRLERWADRLESMGGKYPVGSEPARHTVSVGVGGPEPYCQEADGYDYTVSPYAITPPPAAGELPEQESVGAQQYQSWVPGEDGQPSPGVDTQIFEDPREFLSHLEEYLRQVGGSEEYWLSQIQNHMNGPAKKWWEFKQGSVKNWVEFKKEFLQYSEGTLSREAIQRELDLPQKQGEPLDQFLWRKRDLYQTLYVDAEEEEIIQYVVGTLQPKFKRFLRHPLPKTLEQLIQRGMEVQDGLEQAAEPSVTPLPTEDETEALTPALTSESVASDRTQPE
notes: Arc; fusion monomer at ~75 kDa on SDS-PAGE; The crosslinking in HEK293FT cells follows Eriksen et al. (2021); the construct may be described there; also called ectopic Arc; source: HEK293FT, transfected (CMV promoter), in cells / lysate; not shown: monomeric Turquoise 2 (mTq2), N-terminal, kept
B4 was tested, and the “stoichiometry N” value [5] was 2.

B5: Arc, endogenous in primary cortical neuronal cultures (natural protein, UniProt Q63053 1-396, looked up)
chain: MELDHMTTGGLHAYPAPRGGPAAKPNVILQIGKCRAEMLEHVRRTHRHLLTEVSKQVERELKGLHRSVGKLENNLDGYVPTGDSQRWKKSIKACLCRCQETIANLERWVKREMHVWREVFYRLERWADRLESMGGKYPVGSEPARHTVSVGVGGPEPYCQEADGYDYTVSPYAITPPPAAGELPEQESVGAQQYQSWVPGEDGQPSPGVDTQIFEDPREFLSHLEEYLRQVGGSEEYWLSQIQNHMNGPAKKWWEFKQGSVKNWVEFKKEFLQYSEGTLSREAIQRELDLPQKQGEPLDQFLWRKRDLYQTLYVDAEEEEIIQYVVGTLQPKFKRFLRHPLPKTLEQLIQRGMEVQDGLEQAAEPSVTPLPTEDETEALTPALTSESVASDRTQPE
notes: Arc (Arg3.1), endogenous in primary cortical neurons; also called Arg3.1; source: endogenous, primary cortical neuronal cultures (BDNF 50 ng/mL, 2 h), in cells / lysate
B5 was tested, and the “stoichiometry N” value [6] was 2.

B6: Activity-regulated cytoskeleton-associated protein (Arc), endogenous in human SH-SY5Y neuroblastoma cells (natural protein, human (endogenous in SH-SY5Y), UniProt Q7LC44 1-396, looked up)
chain: MELDHRTSGGLHAYPGPRGGQVAKPNVILQIGKCRAEMLEHVRRTHRHLLAEVSKQVERELKGLHRSVGKLESNLDGYVPTSDSQRWKKSIKACLCRCQETIANLERWVKREMHVWREVFYRLERWADRLESTGGKYPVGSESARHTVSVGVGGPESYCHEADGYDYTVSPYAITPPPAAGELPGQEPAEAQQYQPWVPGEDGQPSPGVDTQIFEDPREFLSHLEEYLRQVGGSEEYWLSQIQNHMNGPAKKWWEFKQGSVKNWVEFKKEFLQYSEGTLSREAIQRELDLPQKQGEPLDQFLWRKRDLYQTLYVDADEEEIIQYVVGTLQPKLKRFLRHPLPKTLEQLIQRGMEVQDDLEQAAEPAGPHLPVEDEAETLTPAPNSESVASDRTQPE
notes: Arc (Arg3.1), endogenous in human SH-SY5Y neuroblastoma cells; monomer at ~50 kDa on SDS-PAGE; also called Arg3.1; endogenous Arc; source: endogenous, SH-SY5Y cells (induced with 100 uM carbachol), in cells / lysate
B6 was tested, and the “stoichiometry N” value [6] was 2.

B7: DJ-1, endogenous in rat brain tissue (natural protein, rat (endogenous in rat brain tissue), UniProt O88767 1-189, looked up)
chain: MASKRALVILAKGAEEMETVIPVDIMRRAGIKVTVAGLAGKDPVQCSRDVVICPDTSLEEAKTQGPYDVVVLPGGNLGAQNLSESALVKEILKEQENRKGLIAAICAGPTALLAHEVGFGCKVTSHPLAKDKMMNGSHYSYSESRVEKDGLILTSRGPGTSFEFALAIVEALSGKDMANQVKAPLVLKD
notes: DJ-1, endogenous in rat DG, CA and cortical tissue; also called DJ-I; source: endogenous, rat brain tissue (DG, CA, cortex), in tissue / lysate
For B7, the “stoichiometry N” value [7] was 2.

Reference: publication PMC10289200, “Detection of Arc/Arg3.1 oligomers in rat brain: constitutive and synaptic activity-evoked dimer expression in vivo” (Frontiers in Molecular Neuroscience, 2023)
